The target in the test is Class I polyhydroxyalkanoate synthase (PhaC) from Rhodovulum sulfidophilum (Rhodovulum sulfidophilum). Nature of the test: SEC.

The values below come from publication PMC6044645.

As a reminder, the stoichiometry N is a count of units in the complex or per binding partner. For “Class I polyhydroxyalkanoate synthase (PhaC) from Rhodovulum sulfidophilum (from UniProt A0ABS1RUN8 1-567) (enzyme)”, the stoichiometry N worked out at 2.
